Experimental data reported in paper PMC13090976 (Cell Stress & Chaperones, 2026).

B1: human CHIP-TPR (residues 21-154) [human] / biotin-GSGSGP(pT)IEEVD [modified: biotin, printed before the first residue; phosphothreonine (pT; Thr636 in HSPA1A numbering); biotin, printed before the first residue; phosphothreonine (pT; … (parent complex)
chain 1: EKSPSAQELKEQGNRLFVGRKYPEAAACYGRAITRNPLVAVYYTNRALCYLKMQQHEQALADCRRALELDGQSVKAHFFLGQCQLEMESYDEAIANLQRAYSLAKEQRLNFGDDIPSALRIAKKKRWNSIEERR
chain 2: GSGSGPTIEEVD

Variants of: B1
Assay: biolayer interferometry; read off a plot

Q: For chain 1 N45S, which Kd is on record?
A: Its Kd is roughly 6.6 µM.

Q: Which Kd does the source give for chain 1 G112S here?
A: Its Kd is roughly 1 µM.
